# Reference: article PMC5301497, “Dimerisation induced formation of the active site and the identification of three metal sites in EAL-phosphodiesterases” (Scientific Reports, 2017)
# Assays:
# [1] = target: the molecule itself; assay: crystal structure; MucR^EAL with c-di-GMP/Mg^2+, P2_(1), 2 molecules/AU, 2.27 Å; Morpheus Buffer System 1 pH 6.5, 21 °C
# [2] = target: the molecule itself; assay: crystal structure; PA3825^EAL metal-free apo, tetragonal crystal P4_(3)2_(1)2, 1 molecule/AU, 1.60 Å
protein,measurement,setting,value
"EAL domain of MucR (residues 425–685) (domain or fragment, Pseudomonas aeruginosa PAO1, UniProt Q9I310 425-685, looked up, MucR (PA1727), Pseudomonas aeruginosa PAO1, EAL phosphodiesterase domain, residues 425-685; Cloned into pET-28a through NdeI and HindIII, which would give an N-terminal His6 tag with a thrombin site (surmised); no cleavage of the tag is described; Seen as the 'classic dimer' in the crystal, 2 molecules in the asymmetric unit; also called MucR^EAL; MucR-EAL; source: E. coli BL21 DE3, purified …) SSMNANAQEQLQLLHDLRQALERRQLVLHYQPKVLAPNGPMIGVEALLRWEHPQHGLITPGQFLPLAEKTGLIVQIGEWVLDEACRQMRLWLDGGHADWNIAVNLSALQFAHAGLVDSVRNALLRHSLEPSHLILEVTESTAMRDADASLVILEQLSAMGVGISIDDFGTGYSSLLYLKRLPASELKIDRGFINELAHDSDDAAIVSAIVALGRTLNLKIVAEGVETEAQQEFLTRLGCNSLQGFLLGRPMPAEQLLASVA",binding result,[1],binds
"EAL domain of PA3825 (residues 255–517) (domain or fragment, Pseudomonas aeruginosa PAO1, UniProt Q9HXH7 255-517, looked up, PA3825, Pseudomonas aeruginosa PAO1, EAL phosphodiesterase domain, residues 255-517; The residue numbers of the results (Glu39, Asp160, Asp161, Glu217, loop 160-170) cannot count on the full-length protein; they seem to count on the crystallised domain or the PDB entries; Cloned into the popinF vector; Seen as a 'closed dimer' in the crystal; also called PA3825^EAL; PA3825-EAL; source: E. coli …) SRRVASPSSELRRALEANEFIPYYQPLSPGQGGRWIGVEVLMRWRHPREGLIRPDLFIPFAERSGLIVPMTRALMRQVAEDLGGHAGKLEPGFHIGFNISATHCHELALVDDCRELLAAFPPGHITLVLELTERELIESSEVTDRLFDELHALGVKIAIDDFGTGHSSLAYLRKFQVDCLKIDQSFVARIGIDTLSGHILDSIVELSAKLDLDIVAEGVETPEQRDYLAARGVDYLQGYLIGRPMPLESLLSSLTVQEGQGAS",binding result,[2],binds
